Values quoted from earlier work, collected in article PMC2706832.

Legend:
[1] = biological target: CCL14 9-74 (Homo sapiens) (UniProt Q16627); test: competition with CCL5
CCL7 (Homo sapiens) = CCL7 (Homo sapiens) (UniProt P80098)
Chain of CCL7 (Homo sapiens) (P80098 24-99): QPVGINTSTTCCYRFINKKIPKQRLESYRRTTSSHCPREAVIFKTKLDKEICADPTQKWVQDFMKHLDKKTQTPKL

Chain of CCR1 (P32246 whole entry): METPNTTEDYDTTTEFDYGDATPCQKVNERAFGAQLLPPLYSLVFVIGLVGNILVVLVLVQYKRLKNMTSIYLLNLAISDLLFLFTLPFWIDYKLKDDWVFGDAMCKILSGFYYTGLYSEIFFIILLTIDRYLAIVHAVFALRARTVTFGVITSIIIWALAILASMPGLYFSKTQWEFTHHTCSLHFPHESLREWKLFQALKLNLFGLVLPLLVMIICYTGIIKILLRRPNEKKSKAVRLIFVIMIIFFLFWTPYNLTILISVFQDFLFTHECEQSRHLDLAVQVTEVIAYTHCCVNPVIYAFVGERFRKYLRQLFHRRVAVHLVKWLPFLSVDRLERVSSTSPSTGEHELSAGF
Chain of CCL14 9-74 (Homo sapiens) (Q16627 9-74): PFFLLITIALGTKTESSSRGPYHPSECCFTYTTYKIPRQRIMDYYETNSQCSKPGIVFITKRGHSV

CCR1 (from UniProt P32246)
Ki [1]: 0.023 nM
Kd (CCL7 (Homo sapiens)): 1 nM
